In publication doi:10.1101/2022.12.30.522206:
Like-named read-outs stand apart in the source and are kept apart here.

Experiments:
Assay in all cases: native gel or EMSA
[1] = target: PduA* (PduA with a C-terminal 23 residue extension) (Salmonella typhimurium LT2)
[2] = target: PduA*(A63R) (Salmonella typhimurium LT2)
[3] = target: PduA* (PduA with a C-terminal 23 residue extension) (Salmonella typhimurium LT2); remark: listed apart in the source

PduA* (PduA with a C-terminal 23 residue extension) (natural protein)
stoichiometry N [1]: 3 hexamers

PduA*(A63R) (natural protein)
stoichiometry N [2]: 3 hexamers

B1: PduL (enzyme)
chain: MDKQQLETTVTKVLDEMRERPIPLGISNRHIHLCAEDYDRLFPNHPISEKKELLQPGQYAADQTVTLVGPKGQLKNVRLLGPLRSTSQVEISRTDARTLGIAAPLRMSGSIEGTPGVRLISPFAELDLASGVIVAQRHIHMSPLDALILRVSHGDKVSVAINGDERRLIFDNVAVRVSPDMRLEMHIDTDEANAAGADNPQAFATLVSPR
stoichiometry N [3]: 1
stoichiometry N (PduL dimers per PduA trimer of hexamers) [3]: 3
